To fix the notation:
B8: His-AGR2 WT (mature AGR2, amino acids 21-175, N-terminal 6xHis tag; plasmid pmAGR2) (natural protein, human)
chain: RDTTVKPGAKKDTKDSRPKLPQTLSRGWGDQLIWTQTYEEALYKSKTSSKPLMIIHHLDECPHSQALKKVFAENKEIQKLAEQFVLLNLVYETTDKHLSPDGQYVPRIMFVDPSLTVRADITGRYSNRLYAYEPADTALLLDNMKKALKLLKTEL
notes: human AGR2, mature form without the ER leader, residues 21-175; also called wt-AGR2; wild-type AGR2; source: E. coli BL21-AI, purified (Ni-NTA agarose; gel filtration buffer exchange for HDX)

No end group written: not given here.

For assay [1], the target named is B8. Put plainly: ELISA; competition: biotinylated peptide A4 on the streptavidin-coated solid phase; fixed 1 μg AGR2 added with 100 ng of the indicated non-biotinylated synthetic peptide; AGR2 binding in RLU. Particulars: both partners purified. Background: An ELISA detects its analyte on a solid surface through an enzyme-linked reagent.
In assay [2] the target is free consensus site containing peptides. Put plainly: fluorescence polarisation; data not shown; AGR2 binding to free consensus site containing peptides in solution. On the technique in general: Fluorescence polarisation rises when a labelled molecule tumbles more slowly, as on binding a larger partner.
Assay [3] has as its target T1, 16mer AGR2-interacting peptide SGSG-HLPTTIYYGPPG
T1 construct: peptide A4 with an N-terminal SGSG stretch, as used for hydrogen-deuterium exchange; also called peptide A4 (in the HDX experiment); consensus site peptide A4; source: synthetic peptide (Chiron Mimotopes), stock 5 mg/ml in DMSO
T1 peptide: SGSGHLPTTIYYGPPG
In words: HDX-MS; His-AGR2 WT 1 μM incubated 30 min with peptide 10 μM (1% DMSO), 10-fold dilution into deuterated buffer (20 mM Tris-HCl pD 7.6, 150 mM NaCl, 10 mM MgCl2), room temperature, 30 s to 3 h, pepsin. As to conditions: both partners purified.

For assay [4], the target named is T2, His-EpEX-CO, extracellular domain of EpCAM (amino acids 24-265), N-terminal 6xHis tag (human).
T2 construct: human EpCAM extracellular domain (EpEX), amino acids 24-265 of NM_002354; For HDX the protein was eluted with 1 mM DTT in the final buffer; also called wt-EpCAM; His-EpCAM; source: E. coli BL21-DE3, solubilised with 7 M urea, purified (Ni-NTA agarose); not shown: His6 followed by a TEV protease site, N-terminal, kept
T2 chain: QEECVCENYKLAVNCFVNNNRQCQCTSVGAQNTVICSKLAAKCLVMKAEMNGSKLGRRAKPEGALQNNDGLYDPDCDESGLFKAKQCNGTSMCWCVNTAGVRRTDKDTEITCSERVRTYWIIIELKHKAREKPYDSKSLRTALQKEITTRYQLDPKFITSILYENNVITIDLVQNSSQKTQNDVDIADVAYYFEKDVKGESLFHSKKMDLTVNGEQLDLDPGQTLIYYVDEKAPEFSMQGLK
Put plainly: ELISA; His-EpCAM (EpEX, wt or Y251A) immobilised on polystyrene microtitre plate in 0.1 M NaHCO3 pH 8.6; AGR2 wt or mutants titrated in the mobile phase (0-1 μg), 1 h room temperature; without or with 1 mM DTT at the binding or the blocking step; detected with AGR2 antibody K47, RLU. As to conditions: both partners purified.

The target of assay [5] is T3, biotinylated Peptide A4 (AGR2-binding peptide aptamer, HLPTTIYYGPPG) (also: biotinylated, end not given here).
T3 construct: also called TTIYY-containing peptide; source: synthetic peptide (Chiron Mimotopes)
T3 peptide: HLPTTIYYGPPG
In words: ELISA; biotinylated peptide A4 (5 μg/well) captured on streptavidin-coated microtitre plate; wt or mutant AGR2 titrated in 3% BSA in PBS-T, 1 h room temperature; detected with AGR2 antibody K47, RLU. Particulars: both partners purified.

B1: wt-peptide PTTIYY (non-biotinylated hexapeptide) (peptide)
peptide: PTTIYY
notes: also called PTTIYY hexapeptide; source: synthetic peptide
Regarding B1, the binding result in assay [1] is reported as “binds”.

B2: PTTIYY hexapeptide with Tyrosine at position 5 changed to Tryptophan (peptide)
peptide: PTTIWY
notes: also called PTTIWY; source: synthetic peptide (mutational scan library)
As to B2, the binding result in assay [1] is listed as “binds”.

B3: PTTIYY hexapeptide with Isoleucine at position 4 changed to Leucine (peptide)
peptide: PTTLYY
notes: also called PTTLYY; source: synthetic peptide (mutational scan library)
On to B3, for which, in assay [1], the binding result is listed as “binds”.

B4: PTTIYY hexapeptide with Tyrosine at position 6 changed to Tryptophan (peptide)
peptide: PTTIYW
notes: also called PTTIYW; source: synthetic peptide (mutational scan library)
Turning to B4, the binding result in assay [1] was “binds”.

B5: PTTIYY hexapeptide with Tyrosine at position 6 changed to Phenylalanine (peptide)
peptide: PTTIYF
notes: also called PTTIYF; source: synthetic peptide (mutational scan library)
In the case of B5, the binding result in assay [1] is “binds”.

B6: PTTIYY hexapeptide with the Y-A mutation at position 6 (peptide)
peptide: PTTIYA
notes: also called PTTIYA; source: synthetic peptide (mutational scan library)
As for B6, the binding result in assay [1] is “binds”.

B7: PTTIYY hexapeptide with Tyrosine at position 5 changed to Phenylalanine (peptide)
peptide: PTTIFY
notes: also called PTTIFY; source: synthetic peptide (mutational scan library)
As to B7, the binding result in assay [1] is on record as “binds”.
Regarding B8, the Kd in assay [2] is 15 to 45 µM. The binding result in assay [3], in assay [4] and in assay [5] was “binds” in each case.

B9: His-AGR2 S134A (plasmid pmAGR2S134A) (natural protein, human)
chain: RDTTVKPGAKKDTKDSRPKLPQTLSRGWGDQLIWTQTYEEALYKSKTSSKPLMIIHHLDECPHSQALKKVFAENKEIQKLAEQFVLLNLVYETTDKHLSPDGQYVPRIMFVDPALTVRADITGRYSNRLYAYEPADTALLLDNMKKALKLLKTEL
notes: Ser at 69 as in m1; also called mutant AGR2^S134A; source: E. coli BL21-AI, purified (Ni-NTA agarose; gel filtration buffer exchange for HDX)
For B9, the binding result in assay [4] and in assay [5] was “binds” each time.

B10: His-AGR2 P133A (plasmid pmAGR2P133A) (natural protein, human)
chain: RDTTVKPGAKKDTKDSRPKLPQTLSRGWGDQLIWTQTYEEALYKSKTSSKPLMIIHHLDECPHSQALKKVFAENKEIQKLAEQFVLLNLVYETTDKHLSPDGQYVPRIMFVDASLTVRADITGRYSNRLYAYEPADTALLLDNMKKALKLLKTEL
notes: human AGR2 residues 21-175; source: E. coli BL21-AI, purified (Ni-NTA agarose); not shown: His6 (leader as in m1), N-terminal, kept
As for B10, the binding result in assay [4] and in assay [5] was “binds” each time.

B11: His-AGR2 D132A (plasmid pmAGR2D132A) (natural protein, human)
chain: RDTTVKPGAKKDTKDSRPKLPQTLSRGWGDQLIWTQTYEEALYKSKTSSKPLMIIHHLDECPHSQALKKVFAENKEIQKLAEQFVLLNLVYETTDKHLSPDGQYVPRIMFVAPSLTVRADITGRYSNRLYAYEPADTALLLDNMKKALKLLKTEL
notes: as for B10
For the molecule B11, the binding result in assay [4] and in assay [5] was “binds” each time.

For orientation: Kd means the constant that tells how readily two partners part at equilibrium.

(Values after paper PMC5880107, “The Sequence-specific Peptide-binding Activity of the Protein Sulfide Isomerase AGR2 Directs Its Stable Binding to the Oncogenic Receptor EpCAM*^([image sbox.jpg])” (Molecular & Cellular Proteomics : MCP, 2018).)
